Laboratory results from paper doi:10.1101/382812.

Target: Hcf106 G6CV14C (Pisum sativum)
Assay: cross-linking

stoichiometry N: < 8
Substance: Hcf106 G6CV14C (natural protein)
